# Source: the supplement of paper PMC10065799, “High-throughput profiling of sequence recognition by tyrosine kinases and SH2 domains using bacterial peptide display” (eLife, 2023)
# Key:
# SHP2-C SH2 = assay: SH2 binding enrichment of the phosphorylated peptide, bacterial display (enrichment ratio); higher = better substrate or ligand; peptides without Tyr show the background
# c-Src SH2 = assay: as above
# Grb2 SH2 = Grb2 SH2 (UniProt P62993); assay: as above
# EPHB2 = EPHB2 (UniProt P29323); assay: phosphorylation enrichment, bacterial display (enrichment ratio); higher = better substrate or ligand; peptides without Tyr show the background
# Fes = Fes (UniProt P07332); assay: as above
# c-Src = assay: as above
# AncSZ = assay: as above
# EPHB1 = EPHB1 (UniProt P54762); assay: as above
# Jak2 = Jak2 (UniProt O60674); assay: as above
# FGFR1 = FGFR1 (UniProt P11362); assay: as above
# c-Abl (mouse) = assay: as above
# Fyn = Fyn (UniProt P06241); assay: as above
# Hck = Hck (UniProt P08631); assay: as above
# Fer (mouse) = assay: as above
# FGFR3 = FGFR3 (UniProt P22607); assay: as above
# MERTK = MERTK (UniProt Q12866); assay: as above
# 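Wherever SH2 binding enrichment of the phosphorylated peptide, bacterial display is given: peptide library displayed on the E. coli surface as eCPX fusions, selected cells deep-sequenced, score is each peptide's frequency after selection divided by its frequency in the input.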
# 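Wherever phosphorylation enrichment, bacterial display is given: 11-residue human phosphosite peptides and single-mutation variants displayed on the E. coli surface, counted by deep sequencing, each peptide's frequency after selection divided by its frequency in the unselected input library; frequency after pTyr selection over input frequency; kinase dosed for 20-30% of maximal phosphorylation in three min.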
# Chain of Hck (P08631 whole entry, looked up): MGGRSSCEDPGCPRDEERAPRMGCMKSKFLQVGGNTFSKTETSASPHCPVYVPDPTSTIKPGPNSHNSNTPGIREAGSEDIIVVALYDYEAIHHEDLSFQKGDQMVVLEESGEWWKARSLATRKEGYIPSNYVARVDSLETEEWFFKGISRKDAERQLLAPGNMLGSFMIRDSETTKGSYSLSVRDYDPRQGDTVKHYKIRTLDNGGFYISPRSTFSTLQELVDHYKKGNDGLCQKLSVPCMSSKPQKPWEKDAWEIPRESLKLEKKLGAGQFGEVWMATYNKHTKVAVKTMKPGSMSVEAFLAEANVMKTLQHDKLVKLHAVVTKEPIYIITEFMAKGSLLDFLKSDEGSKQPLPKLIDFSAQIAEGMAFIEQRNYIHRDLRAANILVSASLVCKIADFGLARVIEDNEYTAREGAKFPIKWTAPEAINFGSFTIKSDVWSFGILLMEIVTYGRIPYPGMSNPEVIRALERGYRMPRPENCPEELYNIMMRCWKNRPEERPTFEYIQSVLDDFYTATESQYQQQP
# Chain of MERTK (Q12866 whole entry, looked up, the tested form may be a part): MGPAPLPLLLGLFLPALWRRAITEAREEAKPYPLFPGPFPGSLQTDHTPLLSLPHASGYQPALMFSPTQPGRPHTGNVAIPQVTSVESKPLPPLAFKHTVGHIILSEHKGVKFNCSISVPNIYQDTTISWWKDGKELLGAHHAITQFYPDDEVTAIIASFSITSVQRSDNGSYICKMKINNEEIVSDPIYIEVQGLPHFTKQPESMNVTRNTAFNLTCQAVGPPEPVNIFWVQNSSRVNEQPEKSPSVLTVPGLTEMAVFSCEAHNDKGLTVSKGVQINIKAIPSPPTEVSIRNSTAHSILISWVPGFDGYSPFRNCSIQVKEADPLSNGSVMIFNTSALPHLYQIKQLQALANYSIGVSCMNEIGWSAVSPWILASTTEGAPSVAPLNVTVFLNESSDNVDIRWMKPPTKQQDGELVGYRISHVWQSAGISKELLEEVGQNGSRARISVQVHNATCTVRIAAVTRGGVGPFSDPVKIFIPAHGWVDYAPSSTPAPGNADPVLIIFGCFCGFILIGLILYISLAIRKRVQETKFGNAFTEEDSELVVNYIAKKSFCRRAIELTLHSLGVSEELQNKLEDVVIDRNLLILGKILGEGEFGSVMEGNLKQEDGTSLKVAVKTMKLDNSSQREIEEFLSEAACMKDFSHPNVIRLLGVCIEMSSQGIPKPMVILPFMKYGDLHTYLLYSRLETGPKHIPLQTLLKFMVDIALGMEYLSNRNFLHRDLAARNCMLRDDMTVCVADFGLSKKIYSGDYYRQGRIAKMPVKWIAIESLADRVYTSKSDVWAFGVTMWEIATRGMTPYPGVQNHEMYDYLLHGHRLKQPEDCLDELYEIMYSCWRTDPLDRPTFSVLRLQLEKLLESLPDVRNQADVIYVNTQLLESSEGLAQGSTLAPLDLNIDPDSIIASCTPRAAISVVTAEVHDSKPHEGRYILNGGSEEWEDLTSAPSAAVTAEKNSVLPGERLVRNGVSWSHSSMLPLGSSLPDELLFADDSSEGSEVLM
# Chain of Jak2 (O60674 whole entry, looked up): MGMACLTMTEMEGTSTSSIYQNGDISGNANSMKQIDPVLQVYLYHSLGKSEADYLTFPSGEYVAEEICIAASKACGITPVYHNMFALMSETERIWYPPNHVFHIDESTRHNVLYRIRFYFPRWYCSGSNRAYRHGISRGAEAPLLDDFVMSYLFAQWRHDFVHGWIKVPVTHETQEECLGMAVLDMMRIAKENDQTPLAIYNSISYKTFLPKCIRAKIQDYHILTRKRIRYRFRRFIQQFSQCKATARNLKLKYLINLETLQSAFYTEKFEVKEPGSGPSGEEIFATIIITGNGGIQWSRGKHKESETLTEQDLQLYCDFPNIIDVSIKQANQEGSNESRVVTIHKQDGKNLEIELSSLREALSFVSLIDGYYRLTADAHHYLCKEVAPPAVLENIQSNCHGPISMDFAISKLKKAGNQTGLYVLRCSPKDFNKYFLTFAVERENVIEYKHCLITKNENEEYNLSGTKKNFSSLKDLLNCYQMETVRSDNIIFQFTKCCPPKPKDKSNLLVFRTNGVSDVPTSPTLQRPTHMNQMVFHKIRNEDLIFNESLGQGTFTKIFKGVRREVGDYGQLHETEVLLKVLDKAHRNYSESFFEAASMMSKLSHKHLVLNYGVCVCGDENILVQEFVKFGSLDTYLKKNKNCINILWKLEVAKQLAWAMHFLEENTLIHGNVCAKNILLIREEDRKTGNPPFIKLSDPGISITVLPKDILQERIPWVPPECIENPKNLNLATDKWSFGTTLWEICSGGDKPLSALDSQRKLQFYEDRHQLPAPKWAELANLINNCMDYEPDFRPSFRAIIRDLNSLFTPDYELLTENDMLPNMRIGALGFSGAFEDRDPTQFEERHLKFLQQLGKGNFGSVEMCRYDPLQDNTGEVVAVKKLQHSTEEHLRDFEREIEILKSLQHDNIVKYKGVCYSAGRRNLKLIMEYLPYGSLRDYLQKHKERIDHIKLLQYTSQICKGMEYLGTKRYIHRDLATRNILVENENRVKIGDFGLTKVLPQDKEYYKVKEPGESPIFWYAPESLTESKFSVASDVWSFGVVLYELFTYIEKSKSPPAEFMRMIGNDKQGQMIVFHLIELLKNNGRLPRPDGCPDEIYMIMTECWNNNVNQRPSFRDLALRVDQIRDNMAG
# Chain of FGFR3 (P22607 whole entry, looked up): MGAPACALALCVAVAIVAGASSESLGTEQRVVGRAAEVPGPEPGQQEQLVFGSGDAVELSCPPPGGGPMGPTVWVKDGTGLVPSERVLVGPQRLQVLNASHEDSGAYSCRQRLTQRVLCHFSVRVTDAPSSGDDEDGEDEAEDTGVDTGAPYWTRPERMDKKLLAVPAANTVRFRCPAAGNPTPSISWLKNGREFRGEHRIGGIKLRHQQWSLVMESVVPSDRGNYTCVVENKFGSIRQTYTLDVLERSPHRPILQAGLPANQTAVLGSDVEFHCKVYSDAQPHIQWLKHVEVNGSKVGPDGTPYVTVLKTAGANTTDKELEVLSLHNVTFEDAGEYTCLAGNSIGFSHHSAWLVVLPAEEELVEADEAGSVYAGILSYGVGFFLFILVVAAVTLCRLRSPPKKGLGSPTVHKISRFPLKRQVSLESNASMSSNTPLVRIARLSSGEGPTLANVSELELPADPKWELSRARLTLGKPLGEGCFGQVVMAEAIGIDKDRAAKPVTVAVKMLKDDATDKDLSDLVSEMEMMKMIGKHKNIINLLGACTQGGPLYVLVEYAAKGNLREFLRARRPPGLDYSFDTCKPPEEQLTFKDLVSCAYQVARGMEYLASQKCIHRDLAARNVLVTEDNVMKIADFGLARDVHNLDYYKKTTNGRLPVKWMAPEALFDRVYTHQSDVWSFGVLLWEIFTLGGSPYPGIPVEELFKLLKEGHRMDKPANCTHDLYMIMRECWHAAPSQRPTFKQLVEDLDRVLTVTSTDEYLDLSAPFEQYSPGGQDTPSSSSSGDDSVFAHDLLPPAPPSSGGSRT
# Chain of Fes (P07332 whole entry, looked up): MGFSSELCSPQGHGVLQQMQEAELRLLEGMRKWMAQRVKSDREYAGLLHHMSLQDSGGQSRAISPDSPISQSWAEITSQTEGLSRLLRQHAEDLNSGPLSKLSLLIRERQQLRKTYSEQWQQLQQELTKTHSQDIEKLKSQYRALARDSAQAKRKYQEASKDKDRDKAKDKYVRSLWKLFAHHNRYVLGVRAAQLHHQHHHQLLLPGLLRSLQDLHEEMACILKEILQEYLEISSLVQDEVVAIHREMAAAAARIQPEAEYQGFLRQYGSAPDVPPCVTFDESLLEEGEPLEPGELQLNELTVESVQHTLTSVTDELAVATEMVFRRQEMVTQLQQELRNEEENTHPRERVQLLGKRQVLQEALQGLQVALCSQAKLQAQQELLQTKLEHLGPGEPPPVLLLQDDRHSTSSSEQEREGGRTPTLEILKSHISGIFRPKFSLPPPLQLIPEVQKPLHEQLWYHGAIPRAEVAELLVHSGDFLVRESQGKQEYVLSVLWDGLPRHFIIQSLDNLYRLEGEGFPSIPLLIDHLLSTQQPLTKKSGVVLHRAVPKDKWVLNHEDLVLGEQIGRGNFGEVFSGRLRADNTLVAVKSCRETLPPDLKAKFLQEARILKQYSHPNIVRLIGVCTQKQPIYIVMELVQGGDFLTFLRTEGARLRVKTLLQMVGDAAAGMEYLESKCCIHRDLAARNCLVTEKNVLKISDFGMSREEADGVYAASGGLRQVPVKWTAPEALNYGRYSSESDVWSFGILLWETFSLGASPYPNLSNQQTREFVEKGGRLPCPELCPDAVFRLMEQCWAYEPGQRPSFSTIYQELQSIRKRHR
# Chain of Fyn (P06241 whole entry, looked up): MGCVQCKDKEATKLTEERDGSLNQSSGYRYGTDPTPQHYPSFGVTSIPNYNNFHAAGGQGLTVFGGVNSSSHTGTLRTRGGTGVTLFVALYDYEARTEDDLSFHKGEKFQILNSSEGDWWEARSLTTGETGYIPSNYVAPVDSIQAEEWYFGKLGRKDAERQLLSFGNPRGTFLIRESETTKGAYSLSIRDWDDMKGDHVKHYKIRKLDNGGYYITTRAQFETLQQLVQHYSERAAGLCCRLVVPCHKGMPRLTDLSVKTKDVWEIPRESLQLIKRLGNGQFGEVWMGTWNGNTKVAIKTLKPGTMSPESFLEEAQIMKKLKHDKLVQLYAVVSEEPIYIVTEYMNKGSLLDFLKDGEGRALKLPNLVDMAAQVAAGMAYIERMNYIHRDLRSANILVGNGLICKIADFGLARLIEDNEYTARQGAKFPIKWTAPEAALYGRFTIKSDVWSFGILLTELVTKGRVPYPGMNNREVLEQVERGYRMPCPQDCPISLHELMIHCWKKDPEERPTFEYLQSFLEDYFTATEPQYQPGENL
SH2 binding enrichment (SHP2-C SH2),SH2 binding enrichment (c-Src SH2),SH2 binding enrichment (Grb2 SH2),Sequence,phosphorylation enrichment (EPHB2),phosphorylation enrichment (Fes),phosphorylation enrichment (c-Src),phosphorylation enrichment (AncSZ),phosphorylation enrichment (EPHB1),phosphorylation enrichment (Jak2),phosphorylation enrichment (FGFR1),phosphorylation enrichment (c-Abl (mouse)),phosphorylation enrichment (Fyn),phosphorylation enrichment (Hck),phosphorylation enrichment (Fer (mouse)),phosphorylation enrichment (FGFR3),phosphorylation enrichment (MERTK)
0.702,0.515,0.592,PQQLWYTHKKK [UBTF_Y207_E210K],1.14,1.14,0.7,1.14,0.774,1.07,0.888,0.981,0.52,0.821,0.598,0.589,1.22
1.14,0.686,1.16,PRLMLYNPTTY [EGFR_Y270_P266R],0.905,1.21,0.526,0.922,0.889,1.08,0.731,0.812,0.601,0.692,0.7,0.776,0.649
1.15,0.876,1.41,PSSNLYFRWLT [CNGA3_Y168_YF],0.959,1.2,1.11,1.7,0.688,3.54,1.52,0.822,0.886,1.38,1.02,1.33,4.73
0.774,0.495,0.895,PSSRDYKHNIK [PIGN_Y227],0.47,0.572,0.417,0.442,0.321,0.481,0.448,0.471,0.456,0.474,0.569,0.587,0.463
1.25,0.73,0.771,PTTKTYFPHFY [HBA1_Y43_D48Y],0.735,0.873,0.56,0.782,0.46,0.974,0.628,0.785,0.884,0.535,0.825,1.14,0.508
0.884,0.606,1.28,PVFIKYLPEWT [PSEN1_Y240_L235P],0.715,1.68,0.626,1.45,0.64,1.62,0.515,1.07,0.447,0.519,0.759,1.04,0.475
0.712,0.432,0.623,PVQAASQKVVA [HBB_Y131_Y131S],0.414,1.36,0.469,0.482,0.592,0.398,0.477,0.571,0.445,0.426,0.414,1.55,0.396
0.558,0.569,0.876,PVVKLYATDGR [RP1_Y199],0.78,1.01,0.576,0.781,0.745,0.781,0.648,0.781,0.601,0.554,0.575,0.802,0.451
0.448,0.616,0.957,QAKRKYQEVSK [FES_Y156_A159V],0.443,0.257,0.193,0.463,0.231,0.227,0.424,0.326,0.365,0.373,0.233,0.37,0.311
0.696,0.49,0.763,QDLFLYQTHSE [PKHD1_Y255],0.726,1.96,0.964,1.52,0.887,1.97,0.492,1.56,0.59,0.744,0.778,0.822,0.543
0.926,0.455,0.704,QEALEYFMKQI [PIK3CA_Y1038_M1043I],0.547,1.43,0.714,1.68,0.845,1.53,0.616,1.28,0.545,0.631,0.599,0.744,0.449
0.623,0.557,0.705,QFNIQYSSSAA [ERBB2IP_Y981_YF],0.542,1.31,0.633,1.11,0.51,0.935,0.832,1.01,0.485,0.673,0.458,0.661,0.962
0.561,0.327,0.596,QGFDTYFGYLL [ARSB_Y165_R160Q],10.3,1.64,6.32,2.72,5.42,5.92,5.78,0.92,9.48,8.44,6.45,5.48,4.3
0.776,3.68,0.965,QGGRRYMMIVD [GAA_Y438],0.508,0.574,0.403,0.606,0.487,0.568,0.413,0.543,0.655,0.354,0.692,0.367,0.42
0.936,0.945,1.16,QGIFGYHHHMQ [UFSP2_Y287_Y290H_YF],0.781,1.04,0.498,0.941,0.639,1.07,0.892,0.652,0.395,0.664,0.779,0.792,0.521
0.638,0.483,0.886,QHVPDYRQNVY [PCDHGA1_Y890],0.563,0.829,0.723,0.742,0.544,0.76,0.497,0.66,0.673,0.665,0.517,0.626,0.478
0.813,0.607,0.958,QKINKYLTVPA [SLC9A1_Y683_N682K],0.67,0.625,0.762,1.77,0.282,0.588,0.659,0.462,0.461,0.356,0.567,0.854,0.52
